Measured values as given in publication PMC5429695, “Assembly of Ruminococcus flavefaciens cellulosome revealed by structures of two cohesin-dockerin complexes” (Scientific Reports, 2017).

Assays:
Assay in all cases: ITC; 308 K; dockerin in the cell (stirred at 307 revolutions/min) titrated with 28 injections of 10 uL cohesin at 220 s intervals; proteins in 50 mM HEPES pH 7.5, 0.5 mM CaCl2, 0.5 mM TCEP; single-site model
Details in all cases: both partners purified
[1] = target: T1, RfDoc1a V43A + Q47A, thioredoxin A fusion (R. flavefaciens FD-1)
T1 construct: numbers count on: the recombinant construct of the crystal structure (RfDoc1a numbering of PDB 5M2O); mutant of m3 (pHTP2 derivative); see the note of m3 on limits and numbering; source: E. coli, purified (IMAC, His GraviTrap)

[2] = target: T2, RfDoc1a S40A, thioredoxin A fusion (R. flavefaciens FD-1)
T2 construct: numbers count on: the recombinant construct of the crystal structure (RfDoc1a numbering of PDB 5M2O); mutant of m3 (pHTP2 derivative); see the note of m3 on limits and numbering; source: E. coli, purified (IMAC, His GraviTrap)

[3] = target: T3, RfDoc1a Q47A, thioredoxin A fusion (R. flavefaciens FD-1)
T3 construct: numbers count on: the recombinant construct of the crystal structure (RfDoc1a numbering of PDB 5M2O); mutant of m3 (pHTP2 derivative); see the note of m3 on limits and numbering; source: E. coli, purified (IMAC, His GraviTrap)

[4] = target: T4, RfDoc1a, group 1a dockerin, thioredoxin A fusion, wild type (R. flavefaciens FD-1)
T4 construct: numbers count on: the recombinant construct of the crystal structure (RfDoc1a numbering, residues 23-96 seen in PDB 5M2O); also called Doc1aWT; source: E. coli, purified (IMAC, His GraviTrap)

[5] = target: T5, RfDoc1a V43A, thioredoxin A fusion (R. flavefaciens FD-1)
T5 construct: numbers count on: the recombinant construct of the crystal structure (RfDoc1a numbering of PDB 5M2O); mutant of m3 (pHTP2 derivative); see the note of m3 on limits and numbering; source: E. coli, purified (IMAC, His GraviTrap)

[6] = target: T6, RfDoc1a K54A, thioredoxin A fusion (R. flavefaciens FD-1)
T6 construct: numbers count on: the recombinant construct of the crystal structure (RfDoc1a numbering of PDB 5M2O); mutant of m3 (pHTP2 derivative); see the note of m3 on limits and numbering; source: E. coli, purified (IMAC, His GraviTrap)

[7] = target: T7, RfDoc1a I39A, thioredoxin A fusion (R. flavefaciens FD-1)
T7 construct: numbers count on: the recombinant construct of the crystal structure (RfDoc1a numbering of PDB 5M2O); mutant of m3 (pHTP2 derivative); see the note of m3 on limits and numbering; source: E. coli, purified (IMAC, His GraviTrap)

[8] = target: T8, RfDoc1a Q83A, thioredoxin A fusion (R. flavefaciens FD-1)
T8 construct: numbers count on: the recombinant construct of the crystal structure (RfDoc1a numbering of PDB 5M2O); mutant of m3 (pHTP2 derivative); see the note of m3 on limits and numbering; source: E. coli, purified (IMAC, His GraviTrap)

[9] = target: T9, RfDoc1a L87A, thioredoxin A fusion (R. flavefaciens FD-1)
T9 construct: numbers count on: the recombinant construct of the crystal structure (RfDoc1a numbering of PDB 5M2O); mutant of m3 (pHTP2 derivative); see the note of m3 on limits and numbering; source: E. coli, purified (IMAC, His GraviTrap)

[10] = target: T10, RfDoc1b, group 1b dockerin, thioredoxin A fusion, wild type (R. flavefaciens FD-1)
T10 construct: group 1b dockerin (Doc1b), C-terminal component of protein WP_009982745, a family 9 glycoside hydrolase of R. flavefaciens FD-1, residues 783-862; numbers count on: the recombinant construct of the crystal structure (RfDoc1b numbering, residues 24-102 seen in PDB 5M2S); also called Doc1bWT; Doc1b WT; source: E. coli, purified (IMAC, His GraviTrap)

B1: RfCohScaB3, ScaB cohesin 3 with C-terminal hexa-histidine tag, wild type (domain or fragment)
chain: MPVANADVVFDFQNYTAKAGDEVTVDVLVDSKNKPISAMDVKFKVDSPLTIEEIDKESLAFNTTVMTNMAILGANFKSLDDKGEPLVPKDGAAVFTLYVNVPANTPDGTYYVGFNGKNEVHKSNDGSQFTVASKNGAITVGTPNEEG
Q: B1 was tested. Which Ka [1] did it give?
A: 436000 M⁻¹

Q: And the dH [1]?
A: -48.79 ± 0.39 kcal/mol

Q: And the “stoichiometry N” value [1]?
A: 1

Q: And the Ka [2]?
A: 1.09e+08 M⁻¹

Q: And the dH [2]?
A: -46.6 ± 0.15 kcal/mol

Q: And the “stoichiometry N” value [2]?
A: 1

Q: What about the Ka [3] of the same binder?
A: 1.71e+07 M⁻¹

Q: What about the dH [3] of the same binder?
A: -48.27 ± 0.12 kcal/mol

Q: What about the “stoichiometry N” value [3] of the same binder?
A: 1

Q: And the Ka [4]?
A: 1.18e+08 M⁻¹

Q: What about the dH [4] of the same binder?
A: -50.68 ± 0.29 kcal/mol

Q: What about the “stoichiometry N” value [4] of the same binder?
A: 1

Q: And the Ka [5]?
A: 1.91e+06 M⁻¹

Q: What about the dH [5] of the same binder?
A: -52.08 ± 0.14 kcal/mol

Q: What about the “stoichiometry N” value [5] of the same binder?
A: 1

Q: What about the Ka [6] of the same binder?
A: 1.96e+07 M⁻¹

Q: What about the dH [6] of the same binder?
A: -59.73 ± 0.25 kcal/mol

Q: And the “stoichiometry N” value [6]?
A: 1

Q: What about the Ka [7] of the same binder?
A: 3.86e+06 M⁻¹

Q: And the dH [7]?
A: -57.26 ± 0.12 kcal/mol

Q: What about the “stoichiometry N” value [7] of the same binder?
A: 1

Q: What about the Ka [8] of the same binder?
A: 1.54e+08 M⁻¹

Q: And the dH [8]?
A: -39.5 ± 0.83 kcal/mol

Q: What about the “stoichiometry N” value [8] of the same binder?
A: 1

Q: And the Ka [9]?
A: 2.81e+07 M⁻¹

Q: And the dH [9]?
A: -59.84 ± 0.19 kcal/mol

Q: What about the “stoichiometry N” value [9] of the same binder?
A: 1

Q: And the Ka [10]?
A: 1.03e+07 M⁻¹

Q: What about the dH [10] of the same binder?
A: -64.94 ± 0.44 kcal/mol

Q: What about the “stoichiometry N” value [10] of the same binder?
A: 1
